Data as given in the supplement of paper PMC9112550, “Optimization of the antimicrobial peptide Bac7 by deep mutational scanning” (BMC Biology, 2022).

System: Escherichia coli TOP10
Test: shrunken log2 fold change of peptide-encoding DNA abundance (4.5 h post-induction vs induction); higher = less antimicrobial activity (less host growth inhibition)
Conditions: time post-induction: 4.5 h; library: site-saturation at positions 5, 18, 19, 20
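Note: peptides expressed intracellularly from a pBAD plasmid library in pooled LB shake-flask culture, induced with 0.3% L-arabinose, DNA abundance read by NGS, three biological replicates, DESeq2 with apeglm shrinkage.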

| Sequence | shrunken log2 fold change |
| --- | --- |
| RRIRGRPPRLPRPRPRPQDNPRP | 0.0555 |
| RRIRQRPPRLPRPRPRPFQNPRP | -0.179 |
| RRIRDRPPRLPRPRPRPSWKPRP | -0.015 |
| RRIRSRPPRLPRPRPRPKAIPRP | 0.119 |
| RRIRPRPPRLPRPRPRPCPPPRP | -0.0276 |
| RRIRTRPPRLPRPRPRPNILPRP | -0.484 |
| RRIRVRPPRLPRPRPRPPHSPRP | 0.108 |
| RRIRYRPPRLPRPRPRPERTPRP | 0.0654 |
| RRIRFRPPRLPRPRPRPMPCPRP | -0.557 |
| RRIRARPPRLPRPRPRPAKNPRP | 0.312 |
| RRIRIRPPRLPRPRPRPSGNPRP | 0.0322 |
| RRIRKRPPRLPRPRPRPRDRPRP | 1.26 |
| RRIRSRPPRLPRPRPRPYKAPRP | -0.0488 |
| RRIRNRPPRLPRPRPRPHQFPRP | -0.000243 |
| RRIRNRPPRLPRPRPRPWCSPRP | -0.535 |
| RRIRYRPPRLPRPRPRPSNVPRP | -1.01 |
| RRIRFRPPRLPRPRPRPHNMPRP | -0.896 |
| RRIRGRPPRLPRPRPRPSMLPRP | 0.58 |
| RRIRVRPPRLPRPRPRPCAIPRP | -0.379 |
| RRIRHRPPRLPRPRPRPFNHPRP | -0.372 |
| RRIRGRPPRLPRPRPRPESVPRP | 1.42 |
| RRIRPRPPRLPRPRPRPYKEPRP | -0.382 |
| RRIRTRPPRLPRPRPRPVFGPRP | 0.227 |
| RRIRHRPPRLPRPRPRPCAQPRP | 0.000337 |
| RRIRARPPRLPRPRPRPHDWPRP | 0.295 |

| Sequence | shrunken log2 fold change |
| --- | --- |
| RRIRTRPPRLPRPRPRPKHSPRP | -0.416 |
| RRIRQRPPRLPRPRPRPIYVPRP | 0.0693 |
| RRIRDRPPRLPRPRPRPGGYPRP | 0.101 |
| RRIRDRPPRLPRPRPRPPSGPRP | 0.364 |
| RRIRNRPPRLPRPRPRPNAPPRP | -0.194 |
| RRIRIRPPRLPRPRPRPTKGPRP | 0.0205 |
| RRIRHRPPRLPRPRPRPQRLPRP | 0.00653 |
| RRIRVRPPRLPRPRPRPMKSPRP | 3.02 |
| RRIRSRPPRLPRPRPRPVCVPRP | 0.0943 |
| RRIRTRPPRLPRPRPRPNWQPRP | 0.0832 |
| RRIRGRPPRLPRPRPRPDMGPRP | 0.269 |
| RRIRDRPPRLPRPRPRPQLGPRP | 0.0197 |
| RRIRERPPRLPRPRPRPMGIPRP | -0.113 |
| RRIRGRPPRLPRPRPRPDKHPRP | 0.0564 |
| RRIRGRPPRLPRPRPRPKKYPRP | 0.119 |
| RRIRHRPPRLPRPRPRPLHFPRP | -0.0265 |
| RRIRCRPPRLPRPRPRPSLGPRP | -0.0171 |
| RRIRGRPPRLPRPRPRPLFSPRP | 0.113 |
| RRIRGRPPRLPRPRPRPYAGPRP | -0.0412 |
| RRIRLRPPRLPRPRPRPTLCPRP | 0.163 |
| RRIRQRPPRLPRPRPRPVDWPRP | 0.39 |
| RRIRARPPRLPRPRPRPTIHPRP | -0.0543 |
| RRIRRRPPRLPRPRPRPIGQPRP | 0.182 |
| RRIRDRPPRLPRPRPRPGLAPRP | 0.565 |
| RRIRDRPPRLPRPRPRPASTPRP | 0.397 |

| Sequence | shrunken log2 fold change |
| --- | --- |
| RRIRVRPPRLPRPRPRPQISPRP | -0.0989 |
| RRIRPRPPRLPRPRPRPVESPRP | -0.0537 |
| RRIRRRPPRLPRPRPRPDNIPRP | 0.123 |
| RRIRCRPPRLPRPRPRPVNSPRP | -0.418 |
| RRIRVRPPRLPRPRPRPWDDPRP | -0.27 |
| RRIRKRPPRLPRPRPRPEPVPRP | 0.0885 |
| RRIRVRPPRLPRPRPRPWHKPRP | -0.127 |
| RRIRGRPPRLPRPRPRPAWCPRP | 0.822 |
| RRIRVRPPRLPRPRPRPHHSPRP | -0.593 |
| RRIRNRPPRLPRPRPRPPCMPRP | -0.0283 |
| RRIRTRPPRLPRPRPRPDEQPRP | 0.0127 |
| RRIRFRPPRLPRPRPRPGDCPRP | -0.0759 |
| RRIRVRPPRLPRPRPRPGRTPRP | 0.117 |
| RRIRSRPPRLPRPRPRPLDKPRP | -0.233 |
| RRIRCRPPRLPRPRPRPTFVPRP | -0.161 |
| RRIRPRPPRLPRPRPRPQKPPRP | 0.163 |
| RRIRSRPPRLPRPRPRPYPCPRP | 0.0185 |
| RRIRDRPPRLPRPRPRPKYWPRP | -0.147 |
| RRIRSRPPRLPRPRPRPRVRPRP | 0.217 |
| RRIRIRPPRLPRPRPRPGYPPRP | -0.173 |
| RRIRMRPPRLPRPRPRPCTCPRP | 0.0043 |
| RRIRYRPPRLPRPRPRPESAPRP | -0.146 |
| RRIRSRPPRLPRPRPRPFTCPRP | -0.0185 |
| RRIRMRPPRLPRPRPRPEENPRP | 3.95 |
| RRIRHRPPRLPRPRPRPDISPRP | -0.278 |

| Sequence | shrunken log2 fold change |
| --- | --- |
| RRIRGRPPRLPRPRPRPFIAPRP | 0.245 |
| RRIRNRPPRLPRPRPRPETYPRP | -0.554 |
| RRIRHRPPRLPRPRPRPSHWPRP | -0.288 |
| RRIRIRPPRLPRPRPRPWFRPRP | -0.129 |
| RRIRKRPPRLPRPRPRPPVWPRP | 0.448 |
| RRIRQRPPRLPRPRPRPNKYPRP | -0.686 |
| RRIRVRPPRLPRPRPRPCQVPRP | -0.0502 |
| RRIRARPPRLPRPRPRPRDDPRP | 0.647 |
| RRIRGRPPRLPRPRPRPSQAPRP | 0.612 |
| RRIRDRPPRLPRPRPRPRRVPRP | 0.427 |
| RRIRLRPPRLPRPRPRPNSGPRP | -0.095 |
| RRIRDRPPRLPRPRPRPWNEPRP | -0.195 |
| RRIRARPPRLPRPRPRPVLQPRP | 1.09 |
| RRIRHRPPRLPRPRPRPYSIPRP | -9.97e-05 |
| RRIRVRPPRLPRPRPRPVLAPRP | 0.239 |
| RRIRQRPPRLPRPRPRPVENPRP | -0.0501 |
| RRIRQRPPRLPRPRPRPIRIPRP | 0.0373 |
| RRIRKRPPRLPRPRPRPYPTPRP | -0.0559 |
| RRIRWRPPRLPRPRPRPERAPRP | 0.707 |
| RRIRFRPPRLPRPRPRPHPWPRP | -0.212 |
| RRIRVRPPRLPRPRPRPASSPRP | -0.122 |
| RRIRHRPPRLPRPRPRPKVNPRP | -0.181 |
| RRIRMRPPRLPRPRPRPSCEPRP | 0.541 |
| RRIRHRPPRLPRPRPRPRDCPRP | -0.0851 |
| RRIRPRPPRLPRPRPRPQGFPRP | -0.0446 |

| Sequence | shrunken log2 fold change |
| --- | --- |
| RRIRFRPPRLPRPRPRPVVGPRP | 0.362 |
| RRIRTRPPRLPRPRPRPFQHPRP | -0.214 |
| RRIRIRPPRLPRPRPRPGYVPRP | -0.181 |
| RRIRNRPPRLPRPRPRPDKKPRP | -0.0263 |
| RRIRSRPPRLPRPRPRPKAVPRP | 0.255 |
| RRIRMRPPRLPRPRPRPQSSPRP | -0.0185 |
| RRIRPRPPRLPRPRPRPPGAPRP | 0.806 |
| RRIRWRPPRLPRPRPRPGYTPRP | -0.13 |
| RRIRYRPPRLPRPRPRPIGEPRP | -0.135 |
| RRIRHRPPRLPRPRPRPTCVPRP | 0.134 |
| RRIRMRPPRLPRPRPRPFDKPRP | -0.0136 |
| RRIRQRPPRLPRPRPRPRQFPRP | -0.121 |
| RRIRLRPPRLPRPRPRPAYHPRP | -0.249 |
| RRIRFRPPRLPRPRPRPEMPPRP | -0.142 |
| RRIRSRPPRLPRPRPRPMDCPRP | 0.00208 |
| RRIRMRPPRLPRPRPRPLTCPRP | -0.0821 |
| RRIRMRPPRLPRPRPRPTESPRP | 0.0389 |
| RRIRCRPPRLPRPRPRPPDEPRP | 1.07 |
| RRIRQRPPRLPRPRPRPDQIPRP | 0.00408 |
| RRIRARPPRLPRPRPRPNSEPRP | 0.0883 |
| RRIRARPPRLPRPRPRPFPLPRP | -0.0297 |
| RRIRTRPPRLPRPRPRPKDPPRP | 0.0667 |
| RRIRARPPRLPRPRPRPKIWPRP | 0.53 |
| RRIRNRPPRLPRPRPRPLKCPRP | 0.0144 |
| RRIRERPPRLPRPRPRPQYRPRP | -0.612 |
